# Reference: patent publication US7691567B2, “Methods and compositions relating to fortilin, an anti-apoptotic molecule, and modulators of fortilin” (Board of Regents, the University of Texas System, priority 2000, dated 2010)
# Legend:
# p53 = p53 (Homo sapiens, UniProt P04637); assay: Coimmunoprecipitation of fortilin and p53 from U2OS cell lysates; type: binding; design: endogenous in cells; host or cells: U2OS
# Method: As in example 2, studies were initiated to determine whether p53 and Fortilin specifically interact in U2OS cells. Six million U2OS cells stably expressing either HA-fortilin or HA-only were suspended in lysis-binding-wash buffer (50 mM HEPES, pH7.5, 70 mM KCl, 0.5 mM ATP, 5 mM MgSO4, 1 mM DTT, 0.1% NP40, 2 mg/mL BSA, Aprotinin, PMSF, MG132 and protease inhibitor cocktail). Cells were then mechanically disrupted by nitrogen excavitation method. Cleared total cell lysates were incubated with […] anti-HA antibody (3F10, Roche), followed by the incubation with anti-mouse IgG conjugated to magnetic beads (Dynal USA) and extensive wash with lysis-binding-wash buffer.
# Further experiments were conducted to determine in vivo immunoprecipitation of fortilin by p53. Twenty million U2OS cells were suspended in lysis-binding buffer (50 mM HEPES, pH7.5, 70 mM KCl, 0.5 mM ATP, 5 mM MgSO4, 1 mM DTT, 0.001% NP40, 2 mg/mL BSA, Aprotinin, PMSF, MG132 and protease inhibitor cocktail). Cells were then mechanically disrupted by nitrogen excavitation method. Cleared total cell lysates were divided equally into two eppendorf tubes. To the first tube, anti-p53 antibody (DO-1, […]) was added, while […] control monoclonal antibody was added to the second tube. After incubation, formed complexes were precipitated by goat anti-mouse IgG conjugated to magnetic beads (Dynal USA), followed by extensive wash. […]
# MCL1 = type: cell-based
# FLAG-MCL1 = FLAG-MCL1 (Homo sapiens, UniProt Q07820); type: binding; conditions: COS cell lysate, anti-HA immunoprecipitation
# FLAG-MCL1, sequence (Q07820 whole entry): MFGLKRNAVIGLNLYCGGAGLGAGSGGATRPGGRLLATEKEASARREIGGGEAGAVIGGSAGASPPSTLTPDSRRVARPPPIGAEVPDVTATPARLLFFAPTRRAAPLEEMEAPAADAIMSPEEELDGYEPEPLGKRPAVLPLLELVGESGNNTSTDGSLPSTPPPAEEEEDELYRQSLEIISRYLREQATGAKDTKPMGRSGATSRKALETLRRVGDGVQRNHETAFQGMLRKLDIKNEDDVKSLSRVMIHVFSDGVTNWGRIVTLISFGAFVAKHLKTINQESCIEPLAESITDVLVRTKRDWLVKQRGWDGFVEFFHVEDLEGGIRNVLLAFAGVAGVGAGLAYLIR
# p53, sequence (P04637 whole entry, species assumed): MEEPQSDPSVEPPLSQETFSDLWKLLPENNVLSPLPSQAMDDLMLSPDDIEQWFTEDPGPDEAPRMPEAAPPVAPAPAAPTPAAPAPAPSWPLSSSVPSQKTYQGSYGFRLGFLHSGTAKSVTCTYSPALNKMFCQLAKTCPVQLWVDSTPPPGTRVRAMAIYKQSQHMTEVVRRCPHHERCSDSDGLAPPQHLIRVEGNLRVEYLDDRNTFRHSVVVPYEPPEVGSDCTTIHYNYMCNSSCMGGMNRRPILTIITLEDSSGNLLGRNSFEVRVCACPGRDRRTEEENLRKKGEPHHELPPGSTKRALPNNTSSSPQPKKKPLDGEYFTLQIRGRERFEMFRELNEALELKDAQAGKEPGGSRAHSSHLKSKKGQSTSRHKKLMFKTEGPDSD
substance,measurement,setting,value
Fortilin-HA: influenza hemagglutinin-tagged Fortilin,co-precipitation of fortilin and p53 in vivo,p53,the presence of fortilin was necessary and sufficient for the co-precipitation of p53
same,intracellular localization of MCL1,MCL1,MCL1 was consistently localized in the nucleus just as it was in the cells transfected with empty vector
same,co-precipitation of FLAG-MCL1 in vivo,FLAG-MCL1,FLAG-MCL1 was co-precipitated only in the presence of immunoprecipitated Fortilin-HA
